Data on eight molecules can be found in patent US20200115447A1 (Chugai, published 2020).

In assay [1] the target is T1, mFcγRIII extracellular domain with C-terminal His-tag (mouse, UniProt P08508 31-215).
T1 construct: extracellular domain; also called mouse FcγRIII
T1 sequence (looked up): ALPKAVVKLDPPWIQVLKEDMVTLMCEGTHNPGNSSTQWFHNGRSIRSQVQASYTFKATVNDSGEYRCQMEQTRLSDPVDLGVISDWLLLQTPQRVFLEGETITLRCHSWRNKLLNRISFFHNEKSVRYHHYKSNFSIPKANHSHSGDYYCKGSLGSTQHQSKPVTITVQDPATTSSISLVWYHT
Kind of assay: Biacore SPR, antibody captured on Protein L, FcγR extracellular domain as analyte, 25 C, 1:1 Langmuir fit. In general terms: Surface plasmon resonance follows binding to a sensor surface in real time, without labels.
Description: (§1) Analysis of interaction between each of the altered antibodies and the extracellular domain of the Fcγ receptor prepared as mentioned above was carried out using Biacore T100 (GE Healthcare), Biacore T200 (GE Healthcare), Biacore A100, and Biacore 4000. HBS-EP+(GE Healthcare) was used for the running buffer, and the interactions were measured with a measurement temperature at 25° C. Chips produced by immobilizing Protein L (ACTIGEN or BioVision) by the amine coupling method to a Series S sensor Chip CM5 (GE Healthcare) or Series S sensor Chip CM4 (GE Healthcare) were used.
(§2) The KD values of each of the altered antibodies for the extracellular domain of the Fcγ receptor were calculated according to the following kinetic analysis method.

For assay [2], the target named is T2, mFcγRI extracellular domain with C-terminal His-tag (mouse, UniProt P26151 25-297).
T2 construct: extracellular domain; also called mouse FcγRI
T2 sequence (looked up): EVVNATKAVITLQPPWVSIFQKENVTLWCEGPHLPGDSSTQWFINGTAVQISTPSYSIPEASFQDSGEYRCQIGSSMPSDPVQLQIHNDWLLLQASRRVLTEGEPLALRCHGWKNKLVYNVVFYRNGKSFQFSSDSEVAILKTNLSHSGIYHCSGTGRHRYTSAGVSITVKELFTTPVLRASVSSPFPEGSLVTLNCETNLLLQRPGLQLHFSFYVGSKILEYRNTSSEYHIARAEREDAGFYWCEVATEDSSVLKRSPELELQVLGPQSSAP
Described as above.
Description: as §1, §2

The target in assay [3] is T3, mFcγRII extracellular domain with C-terminal His-tag (mouse, UniProt P08101 30-210).
T3 construct: extracellular domain; also called mouse FcγRII
T3 sequence (looked up): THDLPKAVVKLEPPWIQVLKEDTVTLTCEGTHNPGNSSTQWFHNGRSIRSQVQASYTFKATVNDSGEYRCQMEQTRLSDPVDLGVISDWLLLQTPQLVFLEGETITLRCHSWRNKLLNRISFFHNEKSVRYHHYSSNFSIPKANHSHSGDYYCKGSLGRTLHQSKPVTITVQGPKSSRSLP
Described as above.
Description: as §1, §2

For assay [4], the target named is T4, mFcγRIV extracellular domain with C-terminal His-tag (mouse).
T4 construct: extracellular domain; also called mouse FcγRIV
T4 sequence (A0A0B4J1G0 21-203, looked up): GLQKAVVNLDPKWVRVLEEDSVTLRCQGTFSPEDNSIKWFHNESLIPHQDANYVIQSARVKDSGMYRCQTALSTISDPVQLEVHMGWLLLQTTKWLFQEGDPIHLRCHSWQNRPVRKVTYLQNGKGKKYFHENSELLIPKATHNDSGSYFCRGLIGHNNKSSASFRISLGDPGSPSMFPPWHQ
The assay is described as above.
Description: as §1, §2

The target of another assay is T5, mouse FcRn (mouse, UniProt Q61559 22-297; P01887 21-119, limits assumed).
T5 sequence (looked up) 1: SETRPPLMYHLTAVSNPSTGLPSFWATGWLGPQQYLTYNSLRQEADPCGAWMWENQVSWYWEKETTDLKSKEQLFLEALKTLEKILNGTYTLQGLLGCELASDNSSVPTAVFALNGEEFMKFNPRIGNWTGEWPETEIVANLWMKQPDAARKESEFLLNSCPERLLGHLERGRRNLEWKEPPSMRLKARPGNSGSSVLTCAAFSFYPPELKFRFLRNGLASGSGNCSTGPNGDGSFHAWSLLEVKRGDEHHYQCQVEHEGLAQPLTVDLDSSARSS
T5 sequence (looked up) 2: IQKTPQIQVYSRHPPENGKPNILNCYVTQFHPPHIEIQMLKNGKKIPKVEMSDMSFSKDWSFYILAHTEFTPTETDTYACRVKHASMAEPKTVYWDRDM
Kind of assay: Biacore SPR, mouse FcRn, pH 7.0.

Assay [5] concerns the target T6, soluble human IL-6 receptor (human, UniProt P08887 20-357).
T6 construct: also called hsIL-6R
T6 sequence: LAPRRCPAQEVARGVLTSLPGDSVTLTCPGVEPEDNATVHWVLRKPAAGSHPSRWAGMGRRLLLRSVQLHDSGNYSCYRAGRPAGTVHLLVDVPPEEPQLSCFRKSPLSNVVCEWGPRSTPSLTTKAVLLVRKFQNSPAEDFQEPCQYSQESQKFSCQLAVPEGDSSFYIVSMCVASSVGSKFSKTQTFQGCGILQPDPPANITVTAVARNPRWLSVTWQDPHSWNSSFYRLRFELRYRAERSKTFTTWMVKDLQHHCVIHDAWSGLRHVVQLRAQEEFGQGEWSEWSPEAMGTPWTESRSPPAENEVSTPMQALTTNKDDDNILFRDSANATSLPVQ
In words: SPR (Biacore T100), about 300 RU of antibody captured via protein A/G on a CM5 chip, human IL-6 receptor injected for 3 min, pH 7.4, 1.2 mM CaCl2, 37 C.
Description: The interaction for the antigen-antibody reaction was analyzed in solutions at pH 7.4 and pH 6.0, corresponding to a neutral pH and acidic pH conditions, respectively. An appropriate amount of Protein A/G (Invitrogen) was immobilized onto a Sensor chip CM5 (GE Healthcare) by an amino coupling method, and about 300 RU each of antibodies of interest were captured onto the chip. The two types of running buffers used were: 20 mM ACES/150 mM NaCl/0.05% (w/v) Tween20/1.2 mM CaCl₂ (pH 7.4); and 20 mM ACES/150 mM NaCl/0.05% (w/v) Tween20/1.2 mM CaCl₂ (pH 6.0). […] All measurements were carried out at 37° C.
Then, 10 mM glycine-HCl (pH 1.5) was injected at a flow rate of 30 μl/min for 30 seconds to regenerate the sensor chip.

Assay [6] has as its target T6, soluble human IL-6 receptor. In words: SPR (Biacore T100), antibody captured via protein A/G on a CM5 chip, human IL-6 receptor injected for 3 min, 1.2 mM CaCl2, pH 7.4, 37 C.
Description: Interaction analyses were performed in a solution with a calcium ion concentration of 1.2 mM for the high calcium ion concentration condition or 3 μM for the low calcium ion concentration condition. A suitable amount of protein A/G (Invitrogen) was immobilized onto a Sensor chip CM5 (GE Healthcare) by the amine coupling method, and then antibodies of interest were captured onto the chips. Two types of buffers, 20 mM ACES, 150 mM NaCl, 0.05% (w/v) Tween 20, 1.2 mM CaCl₂ (pH 7.4) or 20 mM ACES, 150 mM NaCl, 0.05% (w/v) Tween 20, 3 μM CaCl₂ (pH 7.4), were used as the running buffer. […] All measurements were taken at 37° C.
Then, 10 mM glycine-HCl (pH 1.5) was injected at a flow rate of 30 μL/min for 30 seconds to regenerate the sensor chip.

What is called Kd is the free concentration of one partner at which half of the binding sites on the other are occupied at equilibrium, for simple one-to-one binding.

B1: Fv4-mIgG2a (antibody)
heavy: QVQLQESGPGLVKPSETLSLTCAVSGHSISHDHAWSWVRQPPGEGLEWIGFISYSGITNYNPSLQGRVTISRDNSKNTLYLQMNSLRAEDTAVYYCARSLARTTAMDYWGEGTLVTVSSAKTTAPSVYPLAPVCGDTTGSSVTLGCLVKGYFPEPVTLTWNSGSLSSGVHTFPAVLQSDLYTLSSSVTVTSSTWPSQSITCNVAHPASSTKVDKKIEPRGPTIKPCPPCKCPAPNLLGGPSVFIFPPKIKDVLMISLSPIVTCVVVDVSEDDPDVQISWFVNNVEVHTAQTQTHREDYNSTLRVVSALPIQHQDWMSGKEFKCKVNNKDLPAPIERTISKPKGSVRAPQVYVLPPPEEEMTKKQVTLTCMVTDFMPEDIYVEWTNNGKTELNYKNTEPVLDSDGSYFMYSKLRVEKKNWVERNSYSCSVVHEGLHNHHTTKSFSRTPGK
light: DIQMTQSPSSLSASVGDSVTITCQASTDISSHLNWYQQKPGKAPELLIYYGSHLLSGVPSRFSGSGSGTDFTFTISSLEAEDAATYYCGQGNRLPYTFGQGTKVEIERADAAPTVSIFPPSSEQLTSGGASVVCFLNNFYPKDINVKWKIDGSERQNGVLNSWTDQDSKDSTYSMSSTLTLTKDEYERHNSYTCEATHKTSTSPIVKSFNRNEC
notes: VH3-mIgG2a with VL3-mCK; copies: 2 + 2
With B1, the dissociation constant (Kd) in assay [1] was 45 nM; in assay [2] it was 3.9 nM; in assay [3], 480 nM; in assay [4], 3.2 nM.

B2: Fv4-mFa30 (antibody, mouse IgG2a, kappa)
heavy: QVQLQESGPGLVKPSETLSLTCAVSGHSISHDHAWSWVRQPPGEGLEWIGFISYSGITNYNPSLQGRVTISRDNSKNTLYLQMNSLRAEDTAVYYCARSLARTTAMDYWGEGTLVTVSSAKTTAPSVYPLAPVCGDTTGSSVTLGCLVKGYFPEPVTLTWNSGSLSSGVHTFPAVLQSDLYTLSSSVTVTSSTWPSQSITCNVAHPASSTKVDKKIEPRGPTIKPCPPCKCPAPNLLGGPDVFIFPPKIKDVLYISLEPIVTCVVVDVSEDDPDVQISWFVNNVEVHTAQTQTHREDYNSTLRVVSALPIQHQDWMSGKEFKCKVNNDDYPAPIERTISKPKGSVRAPQVYVLPPPEEEMTKKQVTLTCMVTDFMPEDIYVEWTNNGKTELNYKNTEPVLDSDGSYFMYSKLRVEKKNWVERNSYSCSVVHEGLKFHHTTKSFSRTPGK
light: DIQMTQSPSSLSASVGDSVTITCQASTDISSHLNWYQQKPGKAPELLIYYGSHLLSGVPSRFSGSGSGTDFTFTISSLEAEDAATYYCGQGNRLPYTFGQGTKVEIERADAAPTVSIFPPSSEQLTSGGASVVCFLNNFYPKDINVKWKIDGSERQNGVLNSWTDQDSKDSTYSMSSTLTLTKDEYERHNSYTCEATHKTSTSPIVKSFNRNEC
notes: VH3-mFa30 with VL3-mCK; copies: 2 + 2
Regarding B2, the dissociation constant Kd was 5.3 nM in assay [1]; 0.99 nM in assay [2]; 8.1 nM in assay [3]; 19 nM in assay [4]; 3.5 nM with mouse FcRn.

B3: 6RpH#02 (antibody, human IgG1, kappa, V domains shown)
VH: QVQLVQSGAEVKKPGSSVKVSCKASGGTFSSYAISWVRQAPGQGLEWMGGIIPIFGTANYAQKFQGRVTITADESTSTAYMELSSLRSEDTAVYYCMINGVWEGGMDVWGQGTTVTVSS
VL: DIQMTQSPSSLSASVGDRVTITCRASQSIHSHLNWYQQKPGKAPKLLIYHASKLQSGVPSRFSGSGSGTDFTLTISSLQPEDFATYYCQQHGNSPLTFGQGTKVEIKR
Consider B3, for which the binding result in assay [5] is reported as “binds”.

B4: 6RC1IgG_010 (antibody, V domains shown)
VH: QVQLVQSGAEVKKPGSSVKVSCKASGGTFSSYAISWVRQAPGQGLEWMGGIIPIFGTANYAQKFQGRVTITADESTSTAYMELSSLRSEDTAVYYCARAAFLEWPIWGSEYFQHWGQGTLVTVSS
VL: DIQMTQSPSSLSASVGDRVTITCRASQSIEDDLAWYQQKPGKAPKLLIYHASSLQSGVPSRFSGSGSGTDFTLTISSLQPEDFATYYCQQRDSYPLTFGQGTKVEIKR
As to B4, in assay [6], the binding result is given as “binds”.

B5: 6RC1IgG_012 (antibody, V domains shown)
VH: QVQLVQSGAEVKKPGASVKVSCKASGYTFTSYGISWVRQAPGQGLEWMGWISAYNGNTNYAQKLQGRVTMTTDTSTSTAYMELRSLRSDDTAVYYCARATYYYDSSAPAFDIWGQGTMVTVSS
VL: DIQMTQSPSSLSASVGDRVTITCRASQSIEDDLAWYQQKPGKAPKLLIYEASTLQSGVPSRFSGSGSGTDFTLTISSLQPEDFATYYCQQHDDSPLTFGQGTKVEIKR
For B5, in assay [6], the binding result is given as “binds”.

B6: 6RpH#01 (antibody, human IgG1, kappa, V domains shown)
VH: EVQLVQSGAEVKKPGSSVKVSCKASGGTFSSYAISWVRQAPGQGLEWMGGIIPIFGTANYAQKFQGRVTITADESTSTAYMELSSLRSEDTAVYYCARASIYCSSTSCYEPPYYYYMDVWGKGTMVTVSS
VL: DIQMTQSPSSLSASVGDRVTITCRASQSISSHLAWYQQKPGKAPKLLIYAASHLQSGVPSRFSGSGSGTDFTLTISSLQPEDFATYYCQQSHNYPLTFGQGTKVEIKR
In the case of B6, in assay [5], the binding result is “binds”.

B7: Tocilizumab (antibody, human IgG1, kappa, V domains shown)
VH: QVQLQESGPGLVRPSQTLSLTCTVSGYSITSDHAWSWVRQPPGRGLEWIGYISYSGITTYNPSLKSRVTMLRDTSKNQFSLRLSSVTAADTAVYYCARSLARTTAMDYWGQGSLVTVSS
VL: DIQMTQSPSSLSASVGDRVTITCRASQDISSYLNWYQQKPGKAPKLLIYYTSRLHSGVPSRFSGSGSGTDFTFTISSLQPEDIATYYCQQGNTLPYTFGQGTKVEIKR
notes: also called anti-IL-6R antibody (tocilizumab); control antibody
B7: the binding result in assay [6] is “binds”.

B8: 6RC1IgG_019 (antibody, V domains shown)
VH: EVQLVQSGAEVKKPGSSVKVSCKASGGTFSSYAISWVRQAPGQGLEWMGGIIPIFGTANYAQKFQGRVTITADESTSTAYMELSSLRSEDTAVYYCARDRGSGFNWGNYAFDIWGQGFSVTVSS
VL: DIQMTQSPSSLSASVGDRVTITCRASQSIEDDLAWYQQKPGKAPKLLIYEASNLQSGVPSRFSGSGSGTDFTLTISSLQPEDFATYYCQQYDRYPYTFGQGTKVEIKR
Turning to B8, the binding result in assay [6] was “binds”.
